The chains are these.
B1: His-tagged full-length Rrp6 (enzyme, S. cerevisiae, UniProt Q12149 1-733, looked up)
chain: MTSENPDVLLSRVINVVRAASSLASQDVDFYKNLDRGFSKDLKSKADKLADMANEIILSIDEHHESFELKEEDISDLWNNFGNIMDNLLEMSDHSLDKLNCAINSKSRGSDLQYLGEFSGKNFSPTKRVEKPQLKFKSPIDNSESHPFIPLLKEKPNALKPLSESLRLVDDDENNPSHYPHPYEYEIDHQEYSPEILQIREEIPSKSWDDSVPIWVDTSTELESMLEDLKNTKEIAVDLEHHDYRSYYGIVCLMQISTRERDYLVDTLKLRENLHILNEVFTNPSIVKVFHGAFMDIIWLQRDLGLYVVGLFDTYHASKAIGLPRHSLAYLLENFANFKTSKKYQLADWRIRPLSKPMTAYARADTHFLLNIYDQLRNKLIESNKLAGVLYESRNVAKRRFEYSKYRPLTPSSEVYSPIEKESPWKILMYQYNIPPEREVLVRELYQWRDLIARRDDESPRFVMPNQLLAALVAYTPTDVIGVVSLTNGVTEHVRQNAKLLANLIRDALRNIKNTNEEATPIPSSETKADGILLETISVPQIRDVMERFSVLCNSNISKSRAKPVTNSSILLGKILPREEHDIAYSKDGLPNKVKTEDIRIRAQNFKSALANLEDIIFEIEKPLVVPVKLEEIKTVDPASAPNHSPEIDNLDDLVVLKKKNIQKKQPAKEKGVTEKDAVDYSKIPNILSNKPGQNNRQQKKRRFDPSSSDSNGPRAAKKRRPAAKGKNLSFKR
notes: Rrp6, S. cerevisiae nuclear exosome 3'-5' riboexonuclease, full length, cloned into pET30a-TEV; also called His-Rrp6; His6-RRP6; source: E. coli DE3 cells, purified (nickel-NTA agarose, batch)

The target in assay [1] is T1, recombinant GST-tagged full-length Nab3 (S. cerevisiae, UniProt P38996 1-802).
T1 construct: Nab3, S. cerevisiae, full length, cloned into pGEX-TEV; also called GST-Nab3; source: E. coli DE3 cells, purified (glutathione Sepharose 4B, batch)
T1 sequence (looked up): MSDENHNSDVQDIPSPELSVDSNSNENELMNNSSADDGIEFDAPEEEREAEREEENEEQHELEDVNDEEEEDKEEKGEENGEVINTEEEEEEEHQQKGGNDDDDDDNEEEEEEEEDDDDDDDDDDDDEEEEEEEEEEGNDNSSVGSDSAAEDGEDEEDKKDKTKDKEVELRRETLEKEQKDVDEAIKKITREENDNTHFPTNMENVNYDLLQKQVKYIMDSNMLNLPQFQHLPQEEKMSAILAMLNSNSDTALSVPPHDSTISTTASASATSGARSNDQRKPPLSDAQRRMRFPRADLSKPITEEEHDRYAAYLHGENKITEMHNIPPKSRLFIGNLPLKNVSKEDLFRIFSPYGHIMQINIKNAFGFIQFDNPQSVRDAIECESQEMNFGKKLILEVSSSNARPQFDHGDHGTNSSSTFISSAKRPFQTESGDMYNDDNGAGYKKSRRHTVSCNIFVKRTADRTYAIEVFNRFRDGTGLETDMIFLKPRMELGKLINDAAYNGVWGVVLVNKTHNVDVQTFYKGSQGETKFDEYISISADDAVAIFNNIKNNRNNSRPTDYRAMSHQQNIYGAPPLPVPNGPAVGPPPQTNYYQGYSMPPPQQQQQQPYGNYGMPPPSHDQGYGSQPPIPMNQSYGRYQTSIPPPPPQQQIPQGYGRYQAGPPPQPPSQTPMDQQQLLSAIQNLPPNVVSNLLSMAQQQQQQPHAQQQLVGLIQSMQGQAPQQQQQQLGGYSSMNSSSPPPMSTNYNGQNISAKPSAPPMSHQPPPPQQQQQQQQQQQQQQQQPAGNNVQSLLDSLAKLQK
Description: pull-down; 8 μg purified GST fusion incubated with 14 μg purified His-Rrp6 and glutathione Sepharose 4B in IPP100 buffer (10 mM Tris-HCl pH 8, 100 mM NaCl, 0.1% NP-40) with 10 mg/ml BSA, 2 mM DTT, 2 hr at 4°C; anti-His immunoblot. The note with it: both partners purified. Background: Immunoblotting shows a protein as a band on a membrane.

The target in assay [2] is B1. Described as above. The conditions noted are these: both partners purified.
The target in assay [3] is T2, TAP-tagged Nrd1 (S. cerevisiae, UniProt P53617 1-575).
T2 construct: also called Nrd1-TAP; source: S. cerevisiae NRD1-TAP strain (ACY2293; Thermo Scientific Open Biosystems), in lysate
T2 sequence (looked up): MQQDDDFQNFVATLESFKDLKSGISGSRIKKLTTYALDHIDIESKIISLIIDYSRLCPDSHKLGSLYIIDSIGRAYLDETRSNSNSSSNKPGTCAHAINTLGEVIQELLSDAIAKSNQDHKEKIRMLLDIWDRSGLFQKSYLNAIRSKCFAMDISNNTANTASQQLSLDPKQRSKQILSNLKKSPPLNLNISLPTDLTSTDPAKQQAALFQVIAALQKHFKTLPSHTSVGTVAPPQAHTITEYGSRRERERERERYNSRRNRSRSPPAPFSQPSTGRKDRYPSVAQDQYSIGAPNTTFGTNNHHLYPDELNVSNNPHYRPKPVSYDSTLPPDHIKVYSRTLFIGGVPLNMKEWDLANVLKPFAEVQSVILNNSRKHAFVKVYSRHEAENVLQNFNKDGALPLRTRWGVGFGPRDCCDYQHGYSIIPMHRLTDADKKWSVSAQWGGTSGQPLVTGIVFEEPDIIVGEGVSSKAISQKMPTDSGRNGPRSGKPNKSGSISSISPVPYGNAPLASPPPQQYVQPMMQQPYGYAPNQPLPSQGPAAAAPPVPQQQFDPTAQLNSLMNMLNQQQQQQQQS
Briefly: co-IP; TAP-tagged Nrd1 precipitated on IgG Sepharose beads from lysates of NRD1-TAP yeast cells expressing Myc-tagged Nab3 proteins; IPP150 buffer (10 mM Tris-HCl pH 8, 150 mM NaCl, 0.1% NP-40), overnight at 4°C; anti-Myc immunoblot; % bound relative to input and to bound wild-type Nab3. The note with it: partners not purified.

Regarding B1, the binding result in assay [1] is reported as “binds”.

B2: GST-tagged Rrp47 (natural protein, S. cerevisiae, UniProt P38801 1-184, looked up)
chain: MEDIEKIKPYVRSFSKALDELKPEIEKLTSKSLDEQLLLLSDERAKLELINRYAYVLSSLMFANMKVLGVKDMSPILGELKRVKSYMDKAKQYDNRITKSNEKSQAEQEKAKNIISNVLDGNKNQFEPSISRSNFQGKHTKFENDELAESTTTKIIDSTDHIRKASSKKSKRLDKVGKKKGGKK
notes: Rrp47, S. cerevisiae exosome cofactor; RRP47 gene amplified (W303 gDNA template) and cloned into pGEX-TEV; also called GST-Rrp47; source: E. coli DE3 cells, purified (glutathione Sepharose 4B, batch)
As to B2, in assay [2], the binding result was “binds”.

B3: Myc-tagged nab3-ΔNBD mutant (Δ204–248) (natural protein, S. cerevisiae, UniProt P38996 1-802, looked up)
chain: MSDENHNSDVQDIPSPELSVDSNSNENELMNNSSADDGIEFDAPEEEREAEREEENEEQHELEDVNDEEEEDKEEKGEENGEVINTEEEEEEEHQQKGGNDDDDDDNEEEEEEEEDDDDDDDDDDDDEEEEEEEEEEGNDNSSVGSDSAAEDGEDEEDKKDKTKDKEVELRRETLEKEQKDVDEAIKKITREENDNTHFPTNMSDTALSVPPHDSTISTTASASATSGARSNDQRKPPLSDAQRRMRFPRADLSKPITEEEHDRYAAYLHGENKITEMHNIPPKSRLFIGNLPLKNVSKEDLFRIFSPYGHIMQINIKNAFGFIQFDNPQSVRDAIECESQEMNFGKKLILEVSSSNARPQFDHGDHGTNSSSTFISSAKRPFQTESGDMYNDDNGAGYKKSRRHTVSCNIFVKRTADRTYAIEVFNRFRDGTGLETDMIFLKPRMELGKLINDAAYNGVWGVVLVNKTHNVDVQTFYKGSQGETKFDEYISISADDAVAIFNNIKNNRNNSRPTDYRAMSHQQNIYGAPPLPVPNGPAVGPPPQTNYYQGYSMPPPQQQQQQPYGNYGMPPPSHDQGYGSQPPIPMNQSYGRYQTSIPPPPPQQQIPQGYGRYQAGPPPQPPSQTPMDQQQLLSAIQNLPPNVVSNLLSMAQQQQQQPHAQQQLVGLIQSMQGQAPQQQQQQLGGYSSMNSSSPPPMSTNYNGQNISAKPSAPPMSHQPPPPQQQQQQQQQQQQQQQQPAGNNVQSLLDSLAKLQK
notes: also called nab3 NBD mutant; nab3-NBD; source: S. cerevisiae (NRD1-TAP, RRP6-TAP or DIS3-TAP cells), 2μ URA3 plasmid, in lysate; not shown: 2xMyc, C-terminal, kept
As to B3, in assay [3], the “% bound relative to wild-type Nab3” value was 8%.

The values above are taken from article PMC4361618, “Nab3 Facilitates the Function of the TRAMP Complex in RNA Processing via Recruitment of Rrp6 Independent of Nrd1” (PLoS Genetics, 2015).
